# Where no end group is shown, it is not given here.
# B1: PC-6 (bispecific antibody)
# light: GGVDFCGLYHWPICYQGGGGSGGLSGRSDAGSPLGLAGSGGSDIQLTQSPSSLSASVGDRVSITCKASQDVSIAVAWYQQKPGKAPKLLIYSASYRYTGVPDRFSGSGSGTDFTLTISSLQPEDFAVYYCQQHYITPLTFGAGTKVEIKRTVAAPSVFIFPPSDEQLKSGTASVVCLLNNFYPREAKVQWKVDNALQSGNSQESVTEQDSKDSTYSLSSTLTLSKADYEKHKVYACEVTHQGLSSPVTKSFNRGEC
# heavy: not shown
# notes: anti-TROP2 wt
# B2: PC-28 (bispecific antibody)
# light: GGIDFCMLYNWPICAGGGGGSGGLSGRSDAGSPLGLAGSGGSDIQLTQSPSSLSASVGDRVSITCKASQDVSIAVAWYQQKPGKAPKLLIYSASYRYTGVPDRFSGSGSGTDFTLTISSLQPEDFAVYYCQQHYITPLTFGAGTKVEIKRTVAAPSVFIFPPSDEQLKSGTASVVCLLNNFYPREAKVQWKVDNALQSGNSQESVTEQDSKDSTYSLSSTLTLSKADYEKHKVYACEVTHQGLSSPVTKSFNRGEC
# heavy: not shown
# notes: anti-TROP2 wt
# B3: PC-29 (bispecific antibody)
# light: GGVDFCGLYHWPICYQGGGGSGGLSGRSDAGSPLGLAGSGGSDIQLTQSPSSLSASVGDRVSITCKASQDVSIAVAWYQQKPGKAPKLLIYSASYRYTGVPDRFSGSGSGTDFTLTISSLQPEDFAVYYCQQHYITPLTFGAGTKVEIKRTVAAPSVFIFPPSDEQLKSGTASVVCLLNNFYPREAKVQWKVDNALQSGNSQESVTEQDSKDSTYSLSSTLTLSKADYEKHKVYACEVTHQGLSSPVTKSFNRGEC
# heavy: not shown
# notes: anti-TROP2 wt
# B4: PC-5 (bispecific antibody)
# light: GGIDFCMLYNWPICAGGGGGSGGLSGRSDAGSPLGLAGSGGSDIQLTQSPSSLSASVGDRVSITCKASQDVSIAVAWYQQKPGKAPKLLIYSASYRYTGVPDRFSGSGSGTDFTLTISSLQPEDFAVYYCQQHYITPLTFGAGTKVEIKRTVAAPSVFIFPPSDEQLKSGTASVVCLLNNFYPREAKVQWKVDNALQSGNSQESVTEQDSKDSTYSLSSTLTLSKADYEKHKVYACEVTHQGLSSPVTKSFNRGEC
# heavy: not shown
# notes: anti-TROP2 wt
# B5: TCE-39 (bispecific antibody)
# light: DIQLTQSPSSLSASVGDRVSITCKASQDVSIAVAWYQQKPGKAPKLLIYSASYRYTGVPDRFSGSGSGTDFTLTISSLQPEDFAVYYCQQHYITPLTFGAGTKVEIKRTVAAPSVFIFPPSDEQLKSGTASVVCLLNNFYPREAKVQWKVDNALQSGNSQESVTEQDSKDSTYSLSSTLTLSKADYEKHKVYACEVTHQGLSSPVTKSFNRGEC
# heavy: EVQLVESGGGLVQPGGSLKLSCAASGFTFNKYAMNWVRQASGKGLEWVGRIRSKYNNYATYYADSVKDRFTISRDDSKNTAYLQMNSLKTEDTAVYYCVRHGNFGNSYISYWAYWGQGTLVTVSSGGGGSGGGGSGGGGSQTVVTQEPSFSVSPGGTVTLTCRSSTGAVTSGNYANWVQQTPGQAPRGLIGGTKFLAPGVPDRFSGSILGNKAALTITGAQADDESDYYCVLWYSNRWVFGGGTKLTVLGGGGSQVQLQQSGSELKKPGASVKVSCKASGYTFTNYGMNWVKQAPGQGLKWMGWINTYTGEPTYTDDFKGRFAFSLDTSVSTAYLQISSLKADDTAVYFCARGGFGSSYWYADVWGQGSLVTVSSASTKGPSVFPLAPSSKSTSGGTAALGCLVKDYFPEPVTVSWNSGALTSGVHTFPAVLQSSGLYSLSSVVTVPSSSLGTQTYICNVNHKPSNTKVDKKVEPKSC
# B6: TCE-49 (bispecific antibody)
# light: DIQLTQSPSSLSASVGDRVSITCKASQDVSIAVAWYQQKPGKAPKLLIYSASYRYTGVPDRFSGSGSGTDFTLTISSLQPEDFAVYYCQQHYITPLTFGAGTKVEIKRTVAAPSVFIFPPSDEQLKSGTASVVCLLNNFYPREAKVQWKVDNALQSGNSQESVTEQDSKDSTYSLSSTLTLSKADYEKHKVYACEVTHQGLSSPVTKSFNRGEC
# heavy: not shown
# B7: TBD-18 (anti-TROP2 Fab, HC Y105A) (Fab, V domains shown)
# VH: QVQLQQSGSELKKPGASVKVSCKASGYTFTNYGMNWVKQAPGQGLKWMGWINTYTGEPTYTDDFKGRFAFSLDTSVSTAYLQISSLKADDTAVYFCARGGFGSSAWYFDVWGQGSLVTVSS
# VL: DIQLTQSPSSLSASVGDRVSITCKASQDVSIAVAWYQQKPGKAPKLLIYSASYRYTGVPDRFSGSGSGTDFTLTISSLQPEDFAVYYCQQHYITPLTFGAGTKVEIKR
# B8: PC-7 (bispecific antibody)
# light: not shown
# heavy: GGVDFCGLYHWPICYQGGGGSGGLSGRSDAGSPLGLAGSGGSQVQLQQSGSELKKPGASVKVSCKASGYTFTNYGMNWVKQAPGQGLKWMGWINTYTGEPTYTDDFKGRFAFSLDTSVSTAYLQISSLKADDTAVYFCARGGFGSSYWYFDVWGQGSLVTVSSASTKGPSVFPLAPSSKSTSGGTAALGCLVKDYFPEPVTVSWNSGALTSGVHTFPAVLQSSGLYSLSSVVTVPSSSLGTQTYICNVNHKPSNTKVDKKVEPKSC
# notes: anti-TROP2 wt
# B9: TCE-2 (bispecific antibody)
# light: not shown
# heavy: QVQLQQSGSELKKPGASVKVSCKASGYTFTNYGMNWVKQAPGQGLKWMGWINTYTGEPTYTDDFKGRFAFSLDTSVSTAYLQISSLKADDTAVYFCARGGFGSSYWYFDVWGQGSLVTVSSASTKGPSVFPLAPSSKSTSGGTAALGCLVKDYFPEPVTVSWNSGALTSGVHTFPAVLQSSGLYSLSSVVTVPSSSLGTQTYICNVNHKPSNTKVDKKVEPKSC
# Columns and labels:
# [1] = target: T1, Human TROP2 ECD (31-274 AA), biotinylated (human, UniProt P09758 31-274, biotinylated (site not stated)); assay: ELISA on immobilized TROP2
# T1 construct: also called tumor-associated calcium signal transducer 2; Human TROP2-biotin
# T1 sequence: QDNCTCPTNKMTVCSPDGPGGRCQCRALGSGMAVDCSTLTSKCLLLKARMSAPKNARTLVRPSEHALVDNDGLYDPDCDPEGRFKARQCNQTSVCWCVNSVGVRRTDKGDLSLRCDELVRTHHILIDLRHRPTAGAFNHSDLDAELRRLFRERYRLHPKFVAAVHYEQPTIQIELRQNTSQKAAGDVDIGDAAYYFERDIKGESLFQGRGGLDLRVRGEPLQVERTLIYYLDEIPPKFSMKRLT
# [2] = target: T1, Human TROP2 ECD (31-274 AA), …; assay: ELISA on immobilized TROP2; remark: listed apart in the source
# [3] = target: T2, TCE-11 (anti-CD3 scFv H101A; anti-TROP2 wt); assay: competition ELISA, TCE on captured CD3
# T2 construct: scFv on the Fab heavy chain; also called TCE-11 (H101A)
# [4] = target: T3, TCE-13 (anti-CD3 scFv N103A; anti-TROP2 wt); assay: competition ELISA, TCE on captured CD3
# T3 construct: scFv on the Fab heavy chain; also called TCE-13 (N103A)
# [5] = target: T4, TCE-20 (anti-CD3 scFv S110A; anti-TROP2 wt); assay: competition ELISA, TCE on captured CD3
# T4 construct: scFv on the Fab heavy chain; also called TCE-20 (S110A)
# [6] = target: T5, TCE-10 (anti-CD3 scFv R100A; anti-TROP2 wt); assay: competition ELISA, TCE on captured CD3
# T5 construct: scFv on the Fab heavy chain; also called TCE-10 (R100A)
# [7] = target: T6, TCE-14 (anti-CD3 scFv F104A; anti-TROP2 wt); assay: competition ELISA, TCE on captured CD3
# T6 construct: scFv on the Fab heavy chain; also called TCE-14 (F104A)
# [8] = target: T7, TCE-22 (anti-CD3 scFv W112A; anti-TROP2 wt); assay: competition ELISA, TCE on captured CD3
# T7 construct: scFv on the Fab heavy chain; also called TCE-22 (W112A)
# [9] = target: T8, TCE-33 (anti-CD3 scFv F240A; anti-TROP2 wt); assay: competition ELISA, TCE on captured CD3
# T8 construct: scFv on the Fab heavy chain; also called TCE-33 (F240A)
# [10] = target: T9, TCE-31 (anti-CD3 scFv W238A; anti-TROP2 wt); assay: competition ELISA, TCE on captured CD3
# T9 construct: scFv on the Fab heavy chain; also called TCE-31 (W238A)
# [11] = target: T10, TCE-1 (anti-CD3 scFv wt; anti-TROP2 Fab wt); assay: competition ELISA: peptide titrated and pre-incubated with a constant concentration of TCE-1, binding of TCE-1 to plate-bound biotinylated CD3 detected
# T10 construct: anti-CD3 scFv fused to the N-terminus of the anti-TROP2 Fab heavy chain; also called TCE-1 (wt)
# [12] = target: T11, Human TROP2 Full length (human, UniProt P09758 31-323); assay: cell-based or functional assay
# T11 sequence: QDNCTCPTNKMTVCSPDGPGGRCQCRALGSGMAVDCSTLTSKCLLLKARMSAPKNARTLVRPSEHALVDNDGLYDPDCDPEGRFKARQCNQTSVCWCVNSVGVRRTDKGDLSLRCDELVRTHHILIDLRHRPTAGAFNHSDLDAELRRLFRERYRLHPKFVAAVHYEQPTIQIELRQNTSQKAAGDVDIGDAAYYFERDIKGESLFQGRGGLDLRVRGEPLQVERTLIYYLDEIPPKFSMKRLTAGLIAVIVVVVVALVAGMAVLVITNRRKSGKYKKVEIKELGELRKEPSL
# [13] = target: T12, TBD-1 wt; assay: competition ELISA: peptide titrated and pre-incubated with a constant concentration of TBD-1, then added to plate-bound biotinylated TROP2; blocked ligand TROP2 (2.m7)
# T12 construct: Fab; the heavy chain entry is VH-CH1; also called wild-type anti-TROP2 Fab (hRS7); TROP2 Fab
# [14] = target: T1, Human TROP2 ECD (31-274 AA), …; assay: ELISA: biotinylated TROP2 captured on neutravidin plate, Fab titrated, HRP secondary antibody
# [15] = target: T1, Human TROP2 ECD (31-274 AA), …; assay: ELISA, ratio of EC50 to that of TBD-1 wt
# [16] = target: T1, Human TROP2 ECD (31-274 AA), …; assay: ELISA, biotinylated TROP2 ECD on neutravidin plate, Fab titrated
binder,measurement,setting,value
B1,EC50,[1],0.0329 µM
same,EC50,[2],0.0166 µM
B2,EC50,[2],0.025 µM
B3,EC50,[2],0.0163 µM
B4,EC50,[1],0.0245 µM
same,EC50,[2],0.00915 µM
"VYCGPEFDESVGCM (cysteine pairing not given here; also: biotinylated, site not given here, mask peptide for the CD3 scFv) [Peptide-67]",IC50,[3],2.82 µM
same,IC50,[4],3.36 µM
same,IC50,[5],1.32 µM
same,IC50,[6],18.6 µM
same,IC50,[7],0.24 µM
same,IC50,[8],38.5 µM
same,IC50,[9],1.25 µM
same,IC50,[10],21.6 µM
same,binding result,[11],binds
"AYCGPEFDESVGCM (cysteine pairing not given here; also: biotinylated, site not given here, mask peptide for the CD3 scFv) [Peptide-72]",IC50,[3],0.79 µM
same,IC50,[4],3.96 µM
same,IC50,[5],3.65 µM
same,IC50,[6],45.6 µM
same,IC50,[7],0.32 µM
same,IC50,[8],40.2 µM
same,IC50,[9],2.7 µM
same,IC50,[10],29.9 µM
same,IC50 (read off the curve),[11],~0.3 µM
"ASQCLGPEWEVCPY (cysteine pairing not given here; also: biotinylated, site not given here, mask peptide for the CD3 scFv) [Peptide-74]",IC50,[3],1.11 µM
same,IC50,[4],10.6 µM
same,IC50,[5],86.6 µM
same,IC50,[6],16.1 µM
same,IC50,[7],2.47 µM
same,IC50,[8],75.4 µM
same,IC50,[9],3.08 µM
same,IC50,[10],33.8 µM
same,binding result,[11],binds
B5,HCT116 Cytotoxicity EC50 (pM),[12],73.2 pM
B6,H292 Cytotoxicity EC50 (pM),[12],3.9 pM
IDFCLLYDWPVCAS [Peptide-16],IC50 (read off the curve),[13],~3 µM
B7,EC50,[14],0.801 µM
same,Fold shift in EC50 relative to wt,[15],4000 fold
same,EC50,[16],0.801 µM
B8,EC50,[1],0.0246 µM
B9,EC50,[1],0.00013 µM
